Laboratory results reported in the supplement of paper PMC9170038.

Tested on: MS2 coat protein
Assay: apparent KD of MS2 coat protein; designed switch direction (-1 OFF switch, 1 ON switch): 1; higher = weaker reporter binding
Summary of the method: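 Stalled E. coli RNA polymerase transcribed designed RNA switches on Illumina chips, which were then titrated with SNAP-549-labelled MS2 coat protein, doubling from 0.7 or 1.5 nM to 3 µM. Steps lasted from 0.8–1.5 h at the lowest concentration to 10–20 min at the highest. The apparent KD is each design's median over clusters of curve-fitted normalised fluorescence.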

[1] = input ligand: microRNA oligo, concentration not stated
[2] = Eterna round: R95, input ligand: FMN 200 uM
[3] = Eterna round: R95, input ligand: microRNA oligo, concentration not stated
[4] = Eterna round: R95, input ligand: none

## GUAGCAUACCGAGGAUAUUCAUUACAUGAGGAUCACCCAUGUUAAUUAUAGGCCAAAAGGCCUUGGGAGAAGGCGGAAUGCUAC [Xeonanis - 20 Mod13] (Eterna round: R96, puzzle: Same State NG 2)
Input ligand: FMN 200 uM
  apparent KD of MS2 coat protein: 12.2 nM
[1]
  apparent KD of MS2 coat protein: 8.28 nM
Input ligand: none
  apparent KD of MS2 coat protein: 13.3 nM

## AACAAUCUAUCUGAGGAUAUCAUGAGAAUAACAUGAGGAUCACCCAUGUGCAGGAAAACUGCAUAUGAGAAGGCAGAUAGAUUGG [Mat - Same State 2 - Mod - D21] (puzzle: Same State 2)
[2]
  apparent KD of MS2 coat protein: 78.6 nM
[3]
  apparent KD of MS2 coat protein: 546 nM
[4]
  apparent KD of MS2 coat protein: 2730 nM

## UUCCCAGCGGGAGGAUAUGGUGCCUUGUUGGUGCUAGAAGGUCCAACAUGAGGAUCACCCAUGUGGGAGUGGUCUAAUGACCUC [SS NG10LRO08] (Eterna round: R96, puzzle: Same State NG 1)
Input ligand: FMN 200 uM
  apparent KD of MS2 coat protein: 301 nM
[1]
  apparent KD of MS2 coat protein: 181 nM
Input ligand: none
  apparent KD of MS2 coat protein: 347 nM

## AAGAUGGUUGUAGGAUAUCCACCACUGAAGGGUGGAGAAGGGCACUCCAACAUGAGGAUCACCCAUGUACUACAAGUAGCAUCG [Eternabot solution 26] (Eterna round: R96, puzzle: Same State NG 1)
Input ligand: FMN 200 uM
  apparent KD of MS2 coat protein: 267 nM
[1]
  apparent KD of MS2 coat protein: 188 nM
Input ligand: none
  apparent KD of MS2 coat protein: 240 nM

## GUUACAUGAGGAUCACCCAUGUAUGUGUGGGAGUAAGUGUCUUAGGAUAUCUAAUAUUUAAAUUAAGAGAAGGAAGAUUGUUGU [JMF's solution 6] (Eterna round: R96, puzzle: Same State NG 3)
Input ligand: FMN 200 uM
  apparent KD of MS2 coat protein: 112 nM
[1]
  apparent KD of MS2 coat protein: 89.9 nM
Input ligand: none
  apparent KD of MS2 coat protein: 112 nM

## AAACCACAUGAGGAUCACCCAUGUAAAAAUAUGGGAGGAUAUCGGAAUAAAAUAAAGAAACGAGAAGGCCUAAAAA [59%, Flamingo, 5] (Eterna round: R96, puzzle: Same State 1)
Input ligand: FMN 200 uM
  apparent KD of MS2 coat protein: 26.6 nM
[1]
  apparent KD of MS2 coat protein: 212 nM
Input ligand: none
  apparent KD of MS2 coat protein: 256 nM

## UUUGGGUGGCUGGAGGAUAUUCGAGUGGUUACAUGAGGAUCACCCAUGUGUCGCGCGGUACGCGAGGAGAAGGCUGGCGGCCGUU (puzzle: Same State 2)
[3]
  apparent KD of MS2 coat protein: 53.4 nM

## AGCUUUUAAUCAGGAUAUGGUCACAUGAGGAUCACCCAUGUAACGAUGAUAUAAUGUGGUCAAGACUAGAAGGGAUUGCUAACA [SameState NG2 #67] (Eterna round: R96, puzzle: Same State NG 2)
Input ligand: FMN 200 uM
  apparent KD of MS2 coat protein: 172 nM
[1]
  apparent KD of MS2 coat protein: 232 nM
Input ligand: none
  apparent KD of MS2 coat protein: 288 nM

## GGAAAGAGGUAAGGAUAUGCAUGGCUGGGACAUGAGGAUCACCCAUGUUGGAGAAGAAAUCUAGGGUAGAAGGUACAAGGAAGG [AK SSNG2-V2-10] (Eterna round: R96, puzzle: Same State NG 2)
Input ligand: FMN 200 uM
  apparent KD of MS2 coat protein: 240 nM
[1]
  apparent KD of MS2 coat protein: 220 nM
Input ligand: none
  apparent KD of MS2 coat protein: 203 nM

## UUAAAACAUGAGGAUCACCCAUGUCAACAAAGUCGAGGAUAUGGGCAAAUAAAAUAAGAACCAGAAGGCGAAUAAU [salish99_SS1_r3_006] (puzzle: Same State 1)
[2]
  apparent KD of MS2 coat protein: 38.2 nM
[3]
  apparent KD of MS2 coat protein: 434 nM
[4]
  apparent KD of MS2 coat protein: 409 nM

## UUCACCUUUUUUUACAUGAGGAUCACCCAUGUUUACCCUACGUAGGAUAUCGAUGAAUGAUUGUACGAGAAGGACGUAGUAAGU [JR_SSND3_Sub057] (Eterna round: R96, puzzle: Same State NG 3)
Input ligand: FMN 200 uM
  apparent KD of MS2 coat protein: 19.1 nM
[1]
  apparent KD of MS2 coat protein: 30.5 nM
Input ligand: none
  apparent KD of MS2 coat protein: 36.1 nM

## GAGCUCGUGUGAGGAUAUGCCGCCGUUUCGGCUGCAGAAGGUGCUACGUUACAUGAGGAUCACCCAUGUCUCUGUUGUUUCGUA [salish99_SSNG1_r04_960] (Eterna round: R96, puzzle: Same State NG 1)
Input ligand: FMN 200 uM
  apparent KD of MS2 coat protein: 65.1 nM
[1]
  apparent KD of MS2 coat protein: 43.3 nM
Input ligand: none
  apparent KD of MS2 coat protein: 51.1 nM

## AUAAAACAUGAGGAUCACCCAUGUAGACACGAUGGAGGAUAUACUAGAUCGAAAGAUCUAGUAGAAGGCCGACGUA [Mat - Same State 1 - JL mod - D95] (Eterna round: R96, puzzle: Same State 1)
Input ligand: FMN 200 uM
  apparent KD of MS2 coat protein: 21.8 nM
[1]
  apparent KD of MS2 coat protein: 15.6 nM
Input ligand: none
  apparent KD of MS2 coat protein: 19.7 nM

## GGUAAGAAUUAAGGAUAUCGAGUACAUAUGUUUAACAUGAGGAUCACCCAUGUGGGUUGCGGUAUCGAGAAGGUAAAAUAUAAG [Mat - same State NG 2 - JL mod - D64] (Eterna round: R96, puzzle: Same State NG 2)
Input ligand: FMN 200 uM
  apparent KD of MS2 coat protein: 51.8 nM
[1]
  apparent KD of MS2 coat protein: 26.4 nM
Input ligand: none
  apparent KD of MS2 coat protein: 75.7 nM

## AAAGUGGGCUUAUUUGGAUUCUCGUCUGGACAUGAGGAUCACCCAUGUAGGCGCUUGGUCUGAGACUAAGCAGCCGA [Didiinso] (Eterna round: R96, puzzle: Sensor for hsa-mir-208a)
Input ligand: FMN 200 uM
  apparent KD of MS2 coat protein: 113 nM
[1]
  apparent KD of MS2 coat protein: 28.5 nM
Input ligand: none
  apparent KD of MS2 coat protein: 75.3 nM

## GUGGUCAGACAUGAGGAUCACCCAUGUGGAAUAAAUAACGGACAGGAUAUUUAAUAUAGGAUAUAGAAGAAGGGUUGAUUGGUG (Eterna round: R96, puzzle: Same State NG 3)
Input ligand: FMN 200 uM
  apparent KD of MS2 coat protein: 104 nM
[1]
  apparent KD of MS2 coat protein: 77.9 nM
Input ligand: none
  apparent KD of MS2 coat protein: 90.8 nM

## GGCGUCUGUCAAGGAUAUGCUACCGUUUCGGUAGCAGAAGGUGAUCACAUGAGGAUCACCCAUGUUUAGGCCAACAGGCCCGCC (Eterna round: R96, puzzle: Same State NG 1)
Input ligand: FMN 200 uM
  apparent KD of MS2 coat protein: 1270 nM
[1]
  apparent KD of MS2 coat protein: 222 nM
Input ligand: none
  apparent KD of MS2 coat protein: 1410 nM

## AUCAAAUACCUAGGAUAUAGUACACACAGCGGGCUAGAAGGAGGCGACCACGCUGACAUGAGGAUCACCCAUGUCCAACAGGAU [Eternabot solution 19] (Eterna round: R96, puzzle: Same State NG 1)
Input ligand: FMN 200 uM
  apparent KD of MS2 coat protein: 48.9 nM
[1]
  apparent KD of MS2 coat protein: 37.8 nM
Input ligand: none
  apparent KD of MS2 coat protein: 52.8 nM

## GUGACCUCCCUAGGAUAUCGCCAAAUGUGAUGUCGACAUGAGGAUCACCCAUGUAUAGUCACGAACGAGAAGGAGGGUGUGGCA [Cesodi] (Eterna round: R96, puzzle: Same State NG 2)
Input ligand: FMN 200 uM
  apparent KD of MS2 coat protein: 15.6 nM
[1]
  apparent KD of MS2 coat protein: 17.5 nM
Input ligand: none
  apparent KD of MS2 coat protein: 19.4 nM

## UAAUUAAGUCAAGGAUAUCACGUCGUUUAGACGUGAGAAGGUGAUUAAUACAUGAGGAUCACCCAUGUAAUACAUGAAUAAUUA [SSNG1/11-B3] (Eterna round: R96, puzzle: Same State NG 1)
Input ligand: FMN 200 uM
  apparent KD of MS2 coat protein: 51.3 nM
[1]
  apparent KD of MS2 coat protein: 59.5 nM
Input ligand: none
  apparent KD of MS2 coat protein: 64.5 nM
